According to patent US10822723:

Tests used:
[1] = target: GST-iBox, recombinant 38 amino acid Inka box, Inka1 (166-203) [GST: P08515]
[2] = target: 13aa synthetic peptide of the PAK4 AID with Pro(0)Ser substitution
[3] = target: 13aa synthetic peptide of the Inka1 iBox with Pro(0)Ser substitution
[4] = target: 13aa synthetic peptide of the Inka1 iBox-C with Pro(0)Ser substitution

B1: 6His-PAK1 (activated), PAK1 (1-545) (protein)
chain: MSNNGLDIQDKPPAPPMRNTSTMIGAGSKDAGTLNHGSKPLPPNPEEKKKKDRFYRSILPGDKTNKKKEKERPEISLPSDFEHTIHVGFDAVTGEFTGMPEQWARLLQTSNITKSEQKKNPQAVLDVLEFYNSKKTSNSQKYMSFTDKSAEDYNSSNALNVKAVSETPAVPPVSEDEDDDDDDATPPPVIAPRPEHTKSVYTRSVIEPLPVTPTRDVATSPISPTENNTTPPDALTRNTEKQKKKPKMSDEEILEKLRSIVSVGDPKKKYTRFEKIGQGASGTVYTAMDVATGQEVAIKQMNLQQQPKKELIINEILVMRENKNPNIVNYLDSYLVGDELWVVMEYLAGGSLTDVVTETCMDEGQIAAVCRECLQALEFLHSNQVIHRDIKSDNILLGMDGSVKLTDFGFCAQITPEQSKRSTMVGTPYWMAPEVVTRKAYGPKVDIWSLGIMAIEMIEGEPPYLNENPLRALYLIATNGTPELQNPEKLSAIFRDFLNRCLEMDVEKRGSAKELLQHQFLKIAKPLSSLTPLIAAAKEATKNNH
- kinase activity, phosphorylation of GST-Raf13 (in vitro kinase assay) [1]: does not affect PAK1

B2: 6His-PAK4cat, recombinant catalytic domain of PAK4 (286-591) (protein)
chain: PPGPRSPQREPQRVSHEQFRAALQLVVDPGDPRSYLDNFIKIGEGSTGIVCIATVRSSGKLVAVKKMDLRKQQRRELLFNEVVIMRDYQHENVVEMYNSYLVGDELWVVMEFLEGGALTDIVTHTRMNEEQIAAVCLAVLQALSVLHAQGVIHRDIKSDSILLTHDGRVKLSDFGFCAQVSKEVPRRKSLVGTPYWMAPELISRLPYGPEVDIWSLGIMVIEMVDGEPPYFNEPPLKAMKMIRDNLPPRLKNLHKVSPSLKGFLDRLLVRDPAQRATAAELLKHPFLAKAGPPASIVPLMRQNRTR
- phosphorylation of synthetic 13mer peptides in an array [2]: The AID-based peptide was phosphorylated as efficiently as Raf1 Ser338
- kinase activity, phosphorylation of GST-Raf13 (in vitro kinase assay) [1]: is a potent of PAK4cat inhibitor in vitro
- phosphorylation of synthetic 13mer peptides in an array [3]: Inka1-derived sequences were significantly better substrates
- phosphorylation of synthetic 13mer peptides in an array [4]: Inka1-derived sequences were significantly better substrates
